Key:
Type in all cases: biochemical
[1] = target: T1, LSD2 (Homo sapiens, UniProt Q8NB78); experiment: H3K4me2 peptide demethylation assay (MALDI-TOF); parameters: 0.15 μM or 1.2 μM purified LSD2 (residues 51-822); His6 (cleaved yes); made in house; host or cells: Sf9 insect cells (baculovirus); conditions: longer H3K4me2 peptide residues 1-44
T1 sequence (Q8NB78 1-822): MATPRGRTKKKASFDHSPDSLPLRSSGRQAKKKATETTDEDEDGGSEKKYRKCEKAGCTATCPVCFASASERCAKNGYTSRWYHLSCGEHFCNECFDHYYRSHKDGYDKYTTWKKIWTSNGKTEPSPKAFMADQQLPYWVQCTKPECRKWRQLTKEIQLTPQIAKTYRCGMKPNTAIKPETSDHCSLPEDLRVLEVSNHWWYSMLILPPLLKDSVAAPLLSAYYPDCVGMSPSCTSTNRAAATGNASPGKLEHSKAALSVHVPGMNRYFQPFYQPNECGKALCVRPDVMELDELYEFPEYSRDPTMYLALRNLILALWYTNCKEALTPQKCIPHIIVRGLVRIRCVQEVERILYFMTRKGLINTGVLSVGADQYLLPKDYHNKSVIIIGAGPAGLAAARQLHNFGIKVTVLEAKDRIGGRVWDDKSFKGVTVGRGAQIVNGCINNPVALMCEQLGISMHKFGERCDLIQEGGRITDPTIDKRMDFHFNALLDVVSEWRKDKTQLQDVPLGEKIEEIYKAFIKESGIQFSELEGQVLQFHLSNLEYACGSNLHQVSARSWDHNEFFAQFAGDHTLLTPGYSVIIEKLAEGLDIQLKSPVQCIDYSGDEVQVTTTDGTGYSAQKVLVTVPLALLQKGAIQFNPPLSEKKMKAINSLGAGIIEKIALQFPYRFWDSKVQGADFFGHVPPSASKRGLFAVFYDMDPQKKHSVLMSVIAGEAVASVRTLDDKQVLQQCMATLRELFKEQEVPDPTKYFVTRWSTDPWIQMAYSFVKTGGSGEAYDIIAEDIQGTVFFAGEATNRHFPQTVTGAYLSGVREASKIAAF
Procedure: FIGS. 12A-12F depict analysis of LSD2 demethylation activity and mutational analysis. […] Demethylation products were analyzed by MALDI-TOF mass spectrometry. 0.15 μM LSD2 can efficiently demethylate the longer H3K4me2 peptide (1-21), but has no detectable activity on the shorter histone peptide (1-15), demethylation of which requires high concentration (1.2 μM) of LSD2. […] It indicates the importance of histone residue 16-21 to LSD2 enzymatic activity and NPAC cofactor activity, supporting our model that NPAC assists enzyme-substrate interactions by creating a new binding site for H3 L20 in the LSD2-NPAC complex. FIG. 12C depicts LSD2 demethylation and NPAC cofactor activity on longer H3K4me2 peptide (1-44). […] The cofactor activity of wild-type NPAC was readily detected under the same conditions. […] It is noted that no obvious cofactor effect of F217A peptide or linker regions was detected in nucleosome and peptide demethylation assays (FIG. 6E and data not shown). […]
Histone peptides are purchased from Millipore, or custom synthesized. The purity of all peptides are >95% as determined by HPLC and mass spectrometry. […] The products were desalted through a C18 Ziptip (Millipore) and analyzed on a MALDI-TOF micro MX mass spectrometer (ABI 4700, Applied Biosystems). […]

[2] = target: T2, His-LSD2 (Homo sapiens, UniProt Q8NB78); experiment: Nucleosome demethylation assay (NPAC cofactor activity for LSD2, immunoblot)
T2 construct: typically 0.5 μg full-length His-LSD2; made in house; host or cells: Sf9 insect cells
T2 sequence (Q8NB78 1-822): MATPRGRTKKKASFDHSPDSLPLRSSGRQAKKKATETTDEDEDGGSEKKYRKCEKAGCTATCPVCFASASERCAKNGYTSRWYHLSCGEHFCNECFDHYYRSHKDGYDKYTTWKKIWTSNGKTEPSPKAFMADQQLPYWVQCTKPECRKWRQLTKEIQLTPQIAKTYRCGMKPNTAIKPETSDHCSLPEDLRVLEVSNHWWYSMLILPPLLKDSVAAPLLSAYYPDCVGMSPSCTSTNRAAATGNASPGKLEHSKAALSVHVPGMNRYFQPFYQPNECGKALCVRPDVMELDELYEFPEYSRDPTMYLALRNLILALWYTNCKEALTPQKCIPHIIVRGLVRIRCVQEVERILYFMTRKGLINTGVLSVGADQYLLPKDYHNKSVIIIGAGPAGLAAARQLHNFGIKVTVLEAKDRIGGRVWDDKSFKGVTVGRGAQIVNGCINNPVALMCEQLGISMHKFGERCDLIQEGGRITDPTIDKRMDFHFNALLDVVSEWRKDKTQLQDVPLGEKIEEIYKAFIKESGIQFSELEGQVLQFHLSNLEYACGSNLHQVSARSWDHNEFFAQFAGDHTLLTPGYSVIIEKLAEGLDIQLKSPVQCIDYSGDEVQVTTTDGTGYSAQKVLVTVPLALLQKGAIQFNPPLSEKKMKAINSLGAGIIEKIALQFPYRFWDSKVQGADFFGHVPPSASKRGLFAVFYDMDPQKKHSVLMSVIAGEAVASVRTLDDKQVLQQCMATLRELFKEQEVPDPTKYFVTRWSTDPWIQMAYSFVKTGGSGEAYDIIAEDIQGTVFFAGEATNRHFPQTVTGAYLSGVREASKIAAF
Procedure: For nucleosome demethylation assays, typically 0.5 μg full-length His-LSD2, 1 μg NPAC protein or peptides, and 2 μg nucleosomes purified from HeLa were used, and demethylation efficiency was analyzed by SDS-PAGE electrophoresis and immunoblot using methylation specific anti-histone H3 antibodies as previously described (Shi et al. 2004).

[3] = target: LSD1 (Homo sapiens, UniProt O60341); experiment: LSD1-mediated nucleosome demethylation assay; conditions: 2 μg LSD1 with 5 μg cofactor protein
Procedure: FIG. 7A depicts the determination of the threshold dosage of purified LSD2 required for nucleosomal H3K4 demethylation. 2 μg of nucleosomes purified from HeLa were incubated with various amount of His-LSD2 proteins for 2 hours at 30° C. The demethylation reactions were analyzed by immunoblotting using indicated antibodies. […] 2 μg LSD1 in combination with 5 μg purified NPAC or CoREST protein was used for histone demethylase assays. […] Transfected cells are marked by arrows; cells shown significant reduction of H3K4me1 are marked by dotted circles. […] In contrast, coexpression of LSD2 and NPAC induces obvious global decrease of H3K4me1. […] FIG. 7D depicts immunofluorescence analyses of H3K9me2 demethylation in cells coexpressing LSD2 and full-length NPAC.

[4] = target: T3, LSD2 (Homo sapiens, UniProt Q8NB78); experiment: H3K4me2 peptide demethylation assay (MALDI-TOF); conditions: H3K4me2 peptide residues 1-21
T3 construct: 0.15 μM or 1.2 μM purified LSD2 (residues 51-822); His6 (cleaved yes); made in house; host or cells: Sf9 insect cells (baculovirus)
T3 sequence (Q8NB78 51-822): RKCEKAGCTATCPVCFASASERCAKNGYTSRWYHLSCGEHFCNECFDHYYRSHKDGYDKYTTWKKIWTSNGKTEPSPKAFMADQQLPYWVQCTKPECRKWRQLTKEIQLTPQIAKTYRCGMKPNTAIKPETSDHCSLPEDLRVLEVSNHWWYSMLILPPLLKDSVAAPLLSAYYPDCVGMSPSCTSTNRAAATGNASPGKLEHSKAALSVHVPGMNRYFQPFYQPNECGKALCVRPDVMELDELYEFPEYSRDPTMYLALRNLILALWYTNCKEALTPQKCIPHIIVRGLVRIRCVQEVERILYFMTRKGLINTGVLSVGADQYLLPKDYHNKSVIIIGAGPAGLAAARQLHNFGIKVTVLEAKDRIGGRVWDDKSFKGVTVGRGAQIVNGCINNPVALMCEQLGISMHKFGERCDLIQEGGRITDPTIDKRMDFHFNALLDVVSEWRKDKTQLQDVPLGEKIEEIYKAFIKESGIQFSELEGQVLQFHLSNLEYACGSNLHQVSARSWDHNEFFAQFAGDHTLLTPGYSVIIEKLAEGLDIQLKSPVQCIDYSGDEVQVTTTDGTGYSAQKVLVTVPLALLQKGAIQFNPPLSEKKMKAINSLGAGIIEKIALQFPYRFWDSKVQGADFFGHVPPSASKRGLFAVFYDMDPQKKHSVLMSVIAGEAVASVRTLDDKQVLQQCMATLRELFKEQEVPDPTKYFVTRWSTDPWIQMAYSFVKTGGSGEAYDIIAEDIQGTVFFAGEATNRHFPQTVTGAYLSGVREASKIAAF
Procedure: FIGS. 12A-12F depict analysis of LSD2 demethylation activity and mutational analysis. […] Demethylation products were analyzed by MALDI-TOF mass spectrometry. 0.15 μM LSD2 can efficiently demethylate the longer H3K4me2 peptide (1-21), but has no detectable activity on the shorter histone peptide (1-15), demethylation of which requires high concentration (1.2 μM) of LSD2. […] It indicates the importance of histone residue 16-21 to LSD2 enzymatic activity and NPAC cofactor activity, supporting our model that NPAC assists enzyme-substrate interactions by creating a new binding site for H3 L20 in the LSD2-NPAC complex. FIG. 12C depicts LSD2 demethylation and NPAC cofactor activity on longer H3K4me2 peptide (1-44). 2 μg H3K4me2 peptide (1-44) were incubated with 0.8 μg GST-LSD2 (1-822) and 2 μg wild-type or F217A full-length GST-NPAC proteins in 100 μl demethylation buffer (50 mM Tris-HCl pH 8.1, 1 mM NAD^+, 0.1 Unit formaldehyde dehydrogenase) at 30° C. for 2 hours. LSD2 alone can efficiently demethylate di-methyl H3K4 of the long peptides, converting large majority of the substrate to H3K4me1. Wild-type NPAC protein can efficiently stimulate LSD2 demethylation, producing unmethylated H3K4. F217A mutation impairs NPAC cofactor activity as expected, showing little stimulatory effect if any. To compare demethylation efficiency, 1.2 μg bio-H3K4me2 peptide (H3 residue 1-21, equal molar ratio to 2 ug H3K4me2 1-44 peptide in above assays) was demethylated by LSD2 under identical conditions (bottom panel). […] The cofactor activity of wild-type NPAC was readily detected under the same conditions. […] Importantly, the demethylation of nucleosomal H3K4me2 was much more efficient in the presence of wild-type NPAC under same conditions (comparing lane 3 verse 4, and 8 verse 9). It is noted that no obvious cofactor effect of F217A peptide or linker regions was detected in nucleosome and peptide demethylation assays (FIG. 6E and data not shown). FIG. 12F depicts Coomassie staining of NPAC proteins used in histone demethylase assays. FIG. 12F discloses “His6” as SEQ ID NO: 75.
Histone peptides are purchased from Millipore, or custom synthesized. The purity of all peptides are >95% as determined by HPLC and mass spectrometry. In vitro histone demethylase activity assays were performed as described (Shi et al., 2004). Briefly, purified LSD2 and NPAC derived peptides or proteins were incubated with 50 μM H3K4me2 peptides (residues 1-21) in 50 mM Tris-HCl, pH 8.5, 50 mM KCl, 5 mM MgCl2, 5% glycerol at 37° C. for 30 min. The products were desalted through a C18 Ziptip (Millipore) and analyzed on a MALDI-TOF micro MX mass spectrometer (ABI 4700, Applied Biosystems). The laser intensity was kept constant for all of the samples. All MS data were processed using Data Explorer 4.5 (Applied Biosystems). […]

B1: full-length NPAC F217A protein: full-length NPAC protein with F217A mutation (protein, UniProt Q49A26 1-553, looked up, variant F217A)
chain: MAAVSLRLGDLVWGKLGRYPPWPGKIVNPPKDLKKPRGKKCFFVKFFGTEDHAWIKVEQLKPYHAHKEEMIKINKGKRFQQAVDAVEEFLRRAKGKDQTSSHNSSDDKNRRNSSEERSRPNSGDEKRKLSLSEGKVKKNMGEGKKRVSSGSSERGSKSPLKRAQEQSPRKRGRPPKDEKDLTIPESSTVKGMMAGPMAAFKWQPTASEPVKDADPHAHHFLLSQTEKPAVCYQAITKKLKICEEETGSTSIQAADSTAVNGSITPTDKKIGFLGLGLMGSGIVSNLLKMGHTVTVWNRTAEKCDLFIQEGARLGRTPAEVVSTCDITFACVSDPKAAKDLVLGPSGVLQGIRPGKCYVDMSTVDADTVTELAQVIVSRGGRFLEAPVSGNQQLSNDGMLVILAAGDRGLYEDCSSCFQAMGKTSFFLGEVGNAAKMMLIVNMVQGSFMATIAEGLTLAQVTGQSQQTLLDILNQGQLASIFLDQKCQNILQGNFKPDFYLKYIQKDLRLAIALGDAVNHPTPMAAAANEVYKRAKALDQSDNDMSAVYRAYIH
modifications: full-length
notes: full-length NPAC protein with F217A mutation
[1]
  Cofactor activity: stimulation of LSD2 demethylation of H3K4me2 peptide: very weak or undetectable
[2]; more NPAC and LSD2 than threshold assay (FIG. 12E)
  Cofactor activity on nucleosomes when more NPAC and LSD2 proteins were used: residual stimulatory activity
[2]; threshold dosage of His-LSD2, nucleosomes purified from HeLa
  Cofactor activity: stimulation of LSD2 demethylation of nucleosomal H3K4me2: didn't detect cofactor activity

B2: linker region of NPAC: NPAC linker region, residues 152-252 or 152-268 (protein)
chain: SERGSKSPLKRAQEQSPRKRGRPPKDEKDLTIPESSTVKGMMAGPMAAFKWQPTASEPVKDADPHFHHFLLSQTEKPAVCYQAITKKLKICEEETGSTSIQ
modifications: left off: a dimerising Fc or GST
[3]
  Stimulation of LSD1 nucleosome demethylation: failed to stimulate LSD1 demethylation of nucleosomes
[4]
  Cofactor activity: stimulation of LSD2 demethylation of H3K4me2 peptide: strong cofactor activity for LSD2
